We go through one substance from PMC8280134.

This experiment deals with GII.4 P-domain (crystallisation construct) (human norovirus GII.4). Kind of experiment: crystal structure; P-domain and Fab mixed 1:1.5, complex isolated by gel filtration; crystals in 0.1 M BIS-TRIS propane pH 8.5, 0.2 M KSCN, 20% w/v PEG 3350, 20 °C. (SEC sorts molecules by how far they enter the pores of the column.)

Consider “GII.4 P-domain (crystallisation construct) (domain or fragment)”, for which the stoichiometry N (commonly the number of molecules, sites or subunits per partner or assembly) turned out to be 2.
